Results reported in PMC7544213, “Weak binding to the A2RE RNA rigidifies hnRNPA2 RRMs and reduces liquid–liquid phase separation and aggregation”.

Key:
Settings in all cases: protein: recombinant; tags: His tag removed by TEV; single strand
[1] = biological target: T1, hnRNPA2 1-189 (tandem RRMs) (UniProt P22626-2 1-189); test: ITC; 7000 uM protein, 800 uM RNA; N 0.921; ITC: 20 mM NaPi pH 6.75, 150 mM NaCl, 25 C (also 20 mM KPi pH 6.75; 20 mM MES pH 6.7, 150 mM NaCl, 10 mM CaCl2); protein in syringe, RNA in cell
[2] = biological target: T1, hnRNPA2 1-189 (tandem RRMs); test: ITC; 4600 uM protein, 115 uM RNA; N 0.785; ITC: 20 mM NaPi pH 6.75, 150 mM NaCl, 25 C (also 20 mM KPi pH 6.75; 20 mM MES pH 6.7, 150 mM NaCl, 10 mM CaCl2); protein in syringe, RNA in cell
[3] = biological target: T1, hnRNPA2 1-189 (tandem RRMs); test: ITC; 7000 uM protein, 800 uM RNA; N 0.798; ITC: 20 mM NaPi pH 6.75, 150 mM NaCl, 25 C (also 20 mM KPi pH 6.75; 20 mM MES pH 6.7, 150 mM NaCl, 10 mM CaCl2); protein in syringe, RNA in cell
[4] = biological target: T1, hnRNPA2 1-189 (tandem RRMs); test: ITC; 20 mM KPi pH 6.75, no NaCl; N about 1; ITC: 20 mM NaPi pH 6.75, 150 mM NaCl, 25 C (also 20 mM KPi pH 6.75; 20 mM MES pH 6.7, 150 mM NaCl, 10 mM CaCl2); protein in syringe, RNA in cell
[5] = biological target: T1, hnRNPA2 1-189 (tandem RRMs); test: ITC; 20 mM NaPi pH 6.75, 150 mM NaCl; N about 1; ITC: 20 mM NaPi pH 6.75, 150 mM NaCl, 25 C (also 20 mM KPi pH 6.75; 20 mM MES pH 6.7, 150 mM NaCl, 10 mM CaCl2); protein in syringe, RNA in cell
[6] = biological target: T1, hnRNPA2 1-189 (tandem RRMs); test: ITC; ITC: 20 mM NaPi pH 6.75, 150 mM NaCl, 25 C (also 20 mM KPi pH 6.75; 20 mM MES pH 6.7, 150 mM NaCl, 10 mM CaCl2); protein in syringe, RNA in cell

T1 sequence (P22626 other isoform, or with tags, fused parts or gaps): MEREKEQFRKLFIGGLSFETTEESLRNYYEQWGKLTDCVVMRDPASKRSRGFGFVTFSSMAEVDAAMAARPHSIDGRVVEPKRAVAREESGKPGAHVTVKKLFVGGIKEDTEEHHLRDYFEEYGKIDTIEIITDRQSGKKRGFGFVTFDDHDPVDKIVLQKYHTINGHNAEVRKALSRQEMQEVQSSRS

Binder | Kd [1] | Kd [2] | Kd [3] | Kd [4] | Kd [5] | Kd [6]
GCCAAGGAGCC (ssRNA) [rA2RE11] | 139 ± 10 µM | 19.8 ± 0.4 µM | 143 ± 10 µM | ~35 µM | ~52 µM | 
AAGGACUAGC (ssRNA) [Wu_10mer] |  |  |  |  |  | 0.228 ± 0.002 µM
